Experimental data published in the supplement of paper PMC7877785.
± gives the uncertainty stated by the source.

Assay: self-splicing fitness, log relative to wild type (ln ratio); higher = more splicing; Tetrahymena group I intron in knt gene, E. coli kanamycin selection, DiMSum; sequences stand for … in CUCUCU…GGAGGGAAAAGUUAUCAGGCAUGCACCUGGUAGCUAGUCUUUAAACCAAUAGAUUGCAUCGGUUUAAAAGGCAAGACCGUCAAAUUGCGGGAAAGGGGUCAACAGCCGUUCAGUACCAAGUCUCAGGGGAAACUUUGAGAUGGCCUUGCAAAGGGUAUGGUAAUAAGCUGACGGACAUGGUCCUAACCACGCAGCCAAGUCCUAAGUCAACAGAUCUUCUGUUGAUAUGGAUGCAGUUCACAGACUAAAUGUCGGUCGGGGAAGAUGUAUUCUUCUCAUAAGAUAUAGUCGGACCUCUCCUUAAUGGGAGCUAGCGGAUGAAGUGAUGCAACACUGGAGCCGCUGGGAACUAAUUUGUAUGCGAAAGUAUAUUGAUUAGUUUUGGAGUACUCGUGGUCG
Method in brief: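 Fitness was computed with DiMSum as the error-weighted combination of replicate fold changes, kanamycin versus none, each normalised to wild type. The library randomised all eight intron nucleotides of the P1ex region, with the intron placed in the knt kanamycin-resistance gene on pET-22b(+) in E. coli BL21(DE3). Six replicate transformations were grown overnight at 37°C or 30°C on LB agar with or without 25 μg/mL kanamycin, plus 100 μg/mL carbenicillin, 50 μM IPTG and 0.2% rhamnose. Pooled colonies were amplicon-sequenced on an Illumina HiSeq 2500.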

Sequence	self-splicing fitness (ln) (30 °C)	self-splicing fitness (ln) (37 °C)
UUGCAGCAAUAUUACGGCUA	0.128 ± 0.045	0.358 ± 0.06
AGCUAGCAAUAUUACGAUUG	-2.89 ± 0.24	-1.98 ± 0.23
CUCAAGCAAUAUUACGCAAU	-3.56 ± 0.31	-1.53 ± 0.32
CGAGAGCAAUAUUACGGAGG	-2.7 ± 0.49	–
GGAAAGCAAUAUUACGUUGG	-3.55 ± 0.2	-2.83 ± 0.34
UCAGAGCAAUAUUACGUUUC	-3.15 ± 0.23	-3.04 ± 0.38
ACUGAGCAAUAUUACGGCGA	-1.87 ± 0.099	-1.19 ± 0.11
UGUGAGCAAUAUUACGCUCU	-1.26 ± 0.3	–
ACCUAGCAAUAUUACGAGCA	-1.17 ± 0.1	-1.59 ± 0.14
UCCUAGCAAUAUUACGGAGC	-3.26 ± 0.29	-1.98 ± 0.18
UCGAAGCAAUAUUACGGUAA	-2.11 ± 0.16	-0.334 ± 0.13
AGUCAGCAAUAUUACGAUCU	-0.19 ± 0.07	0.36 ± 0.09
UCUCAGCAAUAUUACGUAUC	-3.5 ± 0.24	-1.9 ± 0.25
CCCCAGCAAUAUUACGACGU	-3.45 ± 0.21	-2.9 ± 0.19
CUCAAGCAAUAUUACGACUG	-3.48 ± 0.17	-1.7 ± 0.2
GGGCAGCAAUAUUACGCGUA	-0.501 ± 0.077	-0.0324 ± 0.077
ACCCAGCAAUAUUACGAGCU	-4.29 ± 0.21	-2.17 ± 0.14
GCUUAGCAAUAUUACGAGGU	-4.11 ± 0.21	-2.55 ± 0.18
GUUAAGCAAUAUUACGACAA	-0.704 ± 0.29	-1.12 ± 0.26
CCUAAGCAAUAUUACGGCCC	-2.37 ± 0.29	–

Sequence	self-splicing fitness (ln) (30 °C)	self-splicing fitness (ln) (37 °C)
UGCUAGCAAUAUUACGGGGC	-3.59 ± 0.29	-2.69 ± 0.25
UCGCAGCAAUAUUACGCCAA	-1.37 ± 0.16	-1.23 ± 0.22
AUCGAGCAAUAUUACGAAUU	-3.57 ± 0.25	-2.1 ± 0.2
GAGUAGCAAUAUUACGCUGA	–	-1.55 ± 0.39
GGAAAGCAAUAUUACGAGGG	-3.74 ± 0.17	-2.54 ± 0.16
UAUCAGCAAUAUUACGGCGU	-0.864 ± 0.087	-0.578 ± 0.087
CAUCAGCAAUAUUACGCGUA	-0.586 ± 0.089	-0.774 ± 0.083
GUCGAGCAAUAUUACGUCUG	-3.5 ± 0.43	-2.51 ± 0.3
UAGGAGCAAUAUUACGCCUA	-3.16 ± 0.34	-3.02 ± 0.35
GUACAGCAAUAUUACGCGCA	-1.07 ± 0.11	-0.616 ± 0.12
UUCCAGCAAUAUUACGUACC	-2.05 ± 0.24	-1.71 ± 0.31
CAGCAGCAAUAUUACGUUCG	-0.171 ± 0.056	0.0532 ± 0.076
AGGCAGCAAUAUUACGGAUC	-2.19 ± 0.1	-0.495 ± 0.099
AUGGAGCAAUAUUACGCUUA	-2.53 ± 0.33	-0.194 ± 0.21
GCCCAGCAAUAUUACGCUCG	-3.45 ± 0.24	-2.34 ± 0.27
CAAUAGCAAUAUUACGAAGG	-1.86 ± 0.095	-0.211 ± 0.13
CAAUAGCAAUAUUACGUUAU	-4.87 ± 0.34	-1.57 ± 0.18
UUCAAGCAAUAUUACGCUAG	-2.23 ± 0.23	-2.32 ± 0.26
ACGGAGCAAUAUUACGCUCG	-1.67 ± 0.14	-1.01 ± 0.16
